Measurements taken from article PMC6353875, “The EZH2 SANT1 domain is a histone reader providing sensitivity to the modification state of the H4 tail” (Scientific Reports, 2019).
Values belong to the binder of their own block, whether it stands above or below them.

Columns and labels:
[1] = biological target: T1, EZH2 SRM-SANT1 (residues 141–251) (human, UniProt Q15910 141-251); test: NMR titration; 15N-HSQC spectra of 0.05–0.10 mM 15N-EZH2 SRM-SANT1 with increasing concentrations of histone peptide; 25 °C; Kd from normalized CSPs, one-site model accounting for ligand depletion, averaged over significantly perturbed residues; details: both partners purified
T1 construct: Enhancer of Zeste Homologue 2 (EZH2), human, residues 141-251: stimulation response motif (SRM), linker and SANT1 domain; cDNA from OpenBiosystems; Uniformly 15N-enriched for the NMR titrations; untagged in the pull-down; also called EZH2 SANT1; source: E. coli Rosetta2 (DE3) pLysS, purified (glutathione agarose, PreScission cleavage, ion exchange, size exclusion); not shown: GST, N-terminal, …
T1 sequence (Q15910 141-251): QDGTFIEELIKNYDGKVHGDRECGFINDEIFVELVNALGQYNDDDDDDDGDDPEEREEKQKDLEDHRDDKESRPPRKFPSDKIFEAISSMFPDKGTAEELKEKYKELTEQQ

[2] = biological target: T1, EZH2 SRM-SANT1 (residues 141–251); test: pull-down; 1 μg purified untagged SRM-SANT1 with 1 μg biotin-tagged H4 peptide overnight at 4 °C in 150 mM NaCl, 50 mM Tris (pH 6.5), 3 mM DTT; captured on streptavidin sepharose, four washes, coomassie staining; triplicates quantified with ImageJ; details: both partners purified

fold weaker than the H4 tail [1]: ~20 fold
B1: unmodified histone H2B peptide (residues 1–11) (peptide, UniProt P62807 2-12, looked up)
peptide: PEPAKSAPAPK
notes: histone H2B N-terminal tail, residues 1-11; also called H2B (1–11); H2B tail; source: synthetic peptide, bought: AnaSpec (65442-1)

Kd [1]: 700 ± 200 µM
B2: unmodified histone H4 peptide (residues 11–21) (peptide, UniProt P62805 12-22, looked up)
peptide: GKGGAKRHRKV
notes: histone H4, residues 11-21 (holds the basic patch); also called H4(11–21); source: synthetic peptide, custom synthesized by GenScript

binding result [2]: binds
B3: biotinylated unmodified histone H4 peptide (residues 11–27) (peptide, UniProt P62805 12-28, looked up)
peptide: GKGGAKRHRKVLRDNIQ
modifications: biotin (end not stated)
notes: histone H4, residues 11-27; also called unmodified H4 (11–27); source: synthetic peptide, bought: EpiCypher (SKU:12-0035)
